Assays:
[1] = molecular target: T1, c-Met expressed on H1993 cells (Homo sapiens, UniProt P08581); test: Competition ELISA: phage clones inhibit HGF binding to H1993 cells; conditions: phage-displayed scFv; HGF binding without competitors = 100%
T1 construct: H1993 is known to express a high level of c-Met; endogenous in cells; host or cells: H1993
Experimental: (§1) To test whether the three anti-c-Met scFvs could inhibit HGF binding to c-Met, the human lung cancer cell line H1993 was chosen to undergo competition ELISA (Lutterbach B et al. (2007) Cancer Res 67:2081-2088). […] HGF binding to H1993 cells without competitors was considered 100%. H1993 is known to express a high level of c-Met. When H1993 cells were incubated with HGF in the presence of the phage clones, the binding of HGF to H1993 cells was diminished by more than 90% by the anti-c-Met scFv PC1. PC20 inhibited more than 50% of HGF binding to c-Met (FIG. 2, panel A). The competitive inhibition of HGF by different concentrations of soluble scFvs was also tested. Normal mouse IgG (NMIgG) was used as a negative control. HGF binding to immobilized c-Met protein without competitors was considered 100%.

[2] = molecular target: T2, c-Met-Fc protein (Homo sapiens, UniProt P08581); test: Phage ELISA for binding to c-Met-Fc protein; conditions: same phage titer
T2 construct: Fc; purchased R&D
Experimental: Selection of phages displaying specific anti-c-Met scFv was performed by protein G dynabeads (Invitrogen). c-Met-Fc recombinant protein (R&D) was incubated with protein G dynabeads at room temperature (RT) for 1 hr. The scFv library (2×10^9 members) was subtracted non-specific binding in protein G dynabeads and subsequently incubated with c-Met-Fc immobilized dynabeads for 1 hr at 4° C. Unbound phages were removed by washing 4 times with PBST. The phages that bound to c-Met-Fc were recovered by infection with E. coli TG1 cells at 37° C. for 30 min. Part of the infected cells were serial diluted to determine titer, and the others were rescued by M13KO7 helper phage (NEB). […]
To examine the specificity and binding affinity of the three phage clones, a comparative ELISA using the same phage titer was performed. […] The three clones were assessed for binding to cell-surface c-Met by flow cytometry and immunofluorescence assay using 293T cells ectopically expressing human c-Met. […] Soluble anti-c-Met scFvs were purified from periplasmic extract of phage-infected E-coli HB2151 by protein L agarose chromatography, and then assessed by coomassie blue staining representing purified anti-c-Met scFv proteins (S1, S20 and S21) localized in vicinity of 30 kDa corresponding to protein weight marker (upper panel of FIG. 8, panel B).

[3] = molecular target: T3, 293T cells ectopically expressing human c-Met (Homo sapiens, UniProt P08581); test: Phage binding to c-Met-overexpressing 293T cells (flow cytometry, immunofluorescence); type: cell-based; conditions: 293T overexpressing c-Met vs 293T; flow cytometry and immunofluorescence
T3 construct: The DNA encoding full-length c-Met was amplified by PCR; expressed in transfected cells; host or cells: 293T cells transfected with pEF-c-Met expression vector
Experimental: For immunofluorescence staining assay, 293T cells were grown on coverslips to 80% confluence. Transfection of the cells with pEF-c-Met expression vector was performed using Lipofectamin 2000 (Invitrogen) according to manufacturer's instructions. At 48 hrs post-transfection, the cells were incubated with the selected anti-c-Met phage or control phage, by 1×10^10 phage titer for 30 min at 4° C. After the cells were washed twice with PBS, they were fixed by 4% paraformaldehyde, permeabilized with 0.1% TritonX-100 and blocked with 3% BSA. […] The fluorescence images were captured by inverted fluorescence microscope (Axiovert 200M, Zeiss).
For flow cytometry analysis, 293T cells were grown to 80% confluence and transfected with pEF-c-Met expression vector as described above. […] Analysis was performed using FACSCantoll (BD) and emission fluorescence intensity was measured by FACSDiva software (BD) to quantitatively compare their binding affinities
To examine the specificity and binding affinity of the three phage clones, a comparative ELISA using the same phage titer was performed. […] The three clones were assessed for binding to cell-surface c-Met by flow cytometry and immunofluorescence assay using 293T cells ectopically expressing human c-Met. […]

[4] = molecular target: T4, c-Met932-Fc protein (Homo sapiens, UniProt P08581); test: Binding kinetics of anti-c-Met scFv by SPR (BIAcore)
T4 construct: DNA fragments encoding amino acid residues 1 to 932 and 1 to 567 of c-Met were amplified by PCR; made in house; host or cells: 293T cells, transient transfection, protein G purification from supernatant
Experimental: The affinity and kinetics of anti-c-Met scFv were measured by SRP in BIAcore X (GE healthcare). In BIAcore flowcell, 30 μg/ml of c-MetF932-Fc protein was coupled to EDC- and NHS-activated CM5 sensor chip followed by blocking with ethanolamine according to manufacturer's directions. Associated and dissociated phases were monitored for 3 and 5 min, respectively, under continuous flow of 30 μl/min using scFv concentrations ranging 5 to 200 nM. Regeneration was performed by injection of regenerate buffer (0.2 M NaCl, 10 mM glycine, pH 2.7). To determine binding constants, the sensorgrams were fit globally to a sample 1:1 interaction model using BIAevaluation software (GE healthcare).
Binding kinetic constants (Kon and Koff) and affinity of each soluble scFv for c-Met932-Fc protein were measured by Surface Plasmon Resonance (SPR).
Kon and Koff were measured by SRP in a BIAcore using purified scFvs, and the Kd was calculated by BIAevaluation software.

[5] = molecular target: T5, c-MetF932-Fc protein (Homo sapiens, UniProt P08581); test: Competitive ELISA: soluble scFv inhibit HGF binding to immobilized c-Met protein; conditions: different concentrations of soluble scFv
T5 construct: DNA fragments encoding amino acid residues 1 to 932 and 1 to 567 of c-Met were amplified by PCR; made in house; host or cells: 293T cells, transient transfection, protein G purification from supernatant
Experimental: To monitor inhibition effect of scFv, we coated the c-MetF932-Fc protein on a 96-well plate and blocked nonspecific binder with 3% BSA in PBS. 1 nM human HGF (R&D) plus varying concentrations of anti-c-Met scFv or normal mouse IgG were applied to the wells. The amount of HGF bound to c-Met was determined using goat anti-human HGF (R&D), following incubation of HRP-labeled mouse anti-goat IgG (Jackson ImmunoResearch) and OPD substrate (Sigma) plus H2O2. The absorbance was measured with 490 nm using a microplate reader. Inhibition percentage was calculated by the following equation: [(the absorbance of HGF bound without competitor)−(the absorbance of HGF bound with competitor)]/(the absorbance of HGF bound without competitor)×100%.
as §1

[6] = molecular target: T6, c-Met567-Fc protein (Homo sapiens, UniProt P08581); test: Epitope ELISA on c-Met932-Fc and c-Met567-Fc; type: binding; conditions: immobilized recombinant proteins
T6 construct: DNA fragments encoding amino acid residues 1 to 932 and 1 to 567 of c-Met were amplified by PCR; made in house; host or cells: 293T cells, transient transfection, protein G purification from supernatant
Experimental: Therefore, binding epitopes of anti-c-Met scFvs localized within HGF binding domain of c-Met were investigated. The binding ability of anti-c-Met scFvs was examined for c-Met932-Fc protein including whole extracellular domain of c-Met, and c-Met567-Fc protein containing Sema and PSI domain, both of which have been defined as HGF binding regions (FIG. 2, panel C). The c-Met recombinant proteins were immobilized on titer wells, and incubated with anti-c-Met scFvs. Anti-c-Met polyclonal antibody and anti-E tag antibody was used as a positive and negative control, respectively. […] The binding intensity of S1 for c-Met932-Fc was similar to that for c-Met567-Fc.

[7] = purified scFv, c-MetF932-Fc on CM5 chip

T4 sequence (P08581 25-307): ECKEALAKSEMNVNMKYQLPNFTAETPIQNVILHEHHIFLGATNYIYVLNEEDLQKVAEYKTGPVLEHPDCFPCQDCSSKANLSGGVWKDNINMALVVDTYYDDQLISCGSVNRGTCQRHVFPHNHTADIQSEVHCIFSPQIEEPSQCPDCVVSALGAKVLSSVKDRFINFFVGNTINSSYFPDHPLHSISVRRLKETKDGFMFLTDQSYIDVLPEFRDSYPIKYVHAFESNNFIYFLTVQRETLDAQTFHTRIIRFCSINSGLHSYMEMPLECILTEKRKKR
T4 sequence (P08581 308-932): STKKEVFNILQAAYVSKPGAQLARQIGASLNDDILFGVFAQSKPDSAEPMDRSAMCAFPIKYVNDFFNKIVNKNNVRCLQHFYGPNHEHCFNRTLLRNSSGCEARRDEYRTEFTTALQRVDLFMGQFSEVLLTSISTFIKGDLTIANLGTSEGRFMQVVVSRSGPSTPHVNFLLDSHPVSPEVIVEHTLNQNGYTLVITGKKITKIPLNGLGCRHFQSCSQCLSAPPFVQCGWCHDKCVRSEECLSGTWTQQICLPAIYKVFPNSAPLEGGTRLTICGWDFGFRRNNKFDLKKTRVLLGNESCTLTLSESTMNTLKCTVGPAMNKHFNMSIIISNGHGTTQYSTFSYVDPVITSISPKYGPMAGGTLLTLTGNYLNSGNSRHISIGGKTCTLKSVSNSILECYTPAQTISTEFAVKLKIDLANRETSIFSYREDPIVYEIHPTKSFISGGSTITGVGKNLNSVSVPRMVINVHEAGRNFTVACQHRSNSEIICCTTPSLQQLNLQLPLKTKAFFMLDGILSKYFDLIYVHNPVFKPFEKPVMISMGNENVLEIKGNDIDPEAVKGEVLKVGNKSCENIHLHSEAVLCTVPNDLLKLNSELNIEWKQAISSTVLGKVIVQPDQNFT
T5 sequence (P08581 25-307 limits assumed): as the sequence (P08581 25-307) above
T5 sequence (P08581 308-932 limits assumed): as the sequence (P08581 308-932) above
T1 sequence (P08581 25-1390): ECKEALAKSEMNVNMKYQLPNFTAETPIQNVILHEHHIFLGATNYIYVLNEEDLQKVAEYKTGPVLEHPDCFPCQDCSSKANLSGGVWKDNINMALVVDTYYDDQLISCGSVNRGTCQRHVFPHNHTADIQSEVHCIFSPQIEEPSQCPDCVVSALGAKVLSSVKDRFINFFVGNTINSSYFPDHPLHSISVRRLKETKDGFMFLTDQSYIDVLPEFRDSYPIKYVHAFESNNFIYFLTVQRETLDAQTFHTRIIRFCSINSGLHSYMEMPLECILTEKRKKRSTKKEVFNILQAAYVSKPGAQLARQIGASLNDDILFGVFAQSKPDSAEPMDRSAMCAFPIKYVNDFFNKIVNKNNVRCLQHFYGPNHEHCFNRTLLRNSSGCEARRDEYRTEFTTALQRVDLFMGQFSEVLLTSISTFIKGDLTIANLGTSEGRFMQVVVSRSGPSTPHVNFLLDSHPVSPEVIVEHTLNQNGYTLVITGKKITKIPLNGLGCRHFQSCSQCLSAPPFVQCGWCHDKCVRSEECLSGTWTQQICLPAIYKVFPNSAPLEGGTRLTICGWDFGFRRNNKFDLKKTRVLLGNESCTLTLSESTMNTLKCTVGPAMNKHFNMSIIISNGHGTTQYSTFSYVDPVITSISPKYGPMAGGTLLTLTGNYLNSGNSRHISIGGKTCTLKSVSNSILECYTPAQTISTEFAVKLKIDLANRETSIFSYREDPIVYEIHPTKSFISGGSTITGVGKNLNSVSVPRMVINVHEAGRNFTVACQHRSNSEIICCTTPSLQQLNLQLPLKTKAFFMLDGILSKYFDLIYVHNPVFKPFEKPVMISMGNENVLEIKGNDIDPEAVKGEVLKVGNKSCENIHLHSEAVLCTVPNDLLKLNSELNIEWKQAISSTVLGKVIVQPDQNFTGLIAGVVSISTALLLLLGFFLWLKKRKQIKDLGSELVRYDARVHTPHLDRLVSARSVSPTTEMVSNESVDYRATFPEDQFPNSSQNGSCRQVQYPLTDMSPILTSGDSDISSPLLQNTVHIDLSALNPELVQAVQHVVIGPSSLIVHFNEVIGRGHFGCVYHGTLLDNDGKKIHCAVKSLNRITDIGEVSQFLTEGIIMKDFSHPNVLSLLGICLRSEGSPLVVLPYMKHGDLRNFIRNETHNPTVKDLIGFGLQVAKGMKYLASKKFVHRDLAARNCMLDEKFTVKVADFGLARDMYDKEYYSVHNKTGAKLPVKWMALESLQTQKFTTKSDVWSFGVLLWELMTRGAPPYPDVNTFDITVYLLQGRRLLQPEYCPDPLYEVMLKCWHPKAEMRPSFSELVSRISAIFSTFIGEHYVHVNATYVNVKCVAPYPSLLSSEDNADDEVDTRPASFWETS
T2 sequence (P08581 with tags, fused parts or gaps limits assumed): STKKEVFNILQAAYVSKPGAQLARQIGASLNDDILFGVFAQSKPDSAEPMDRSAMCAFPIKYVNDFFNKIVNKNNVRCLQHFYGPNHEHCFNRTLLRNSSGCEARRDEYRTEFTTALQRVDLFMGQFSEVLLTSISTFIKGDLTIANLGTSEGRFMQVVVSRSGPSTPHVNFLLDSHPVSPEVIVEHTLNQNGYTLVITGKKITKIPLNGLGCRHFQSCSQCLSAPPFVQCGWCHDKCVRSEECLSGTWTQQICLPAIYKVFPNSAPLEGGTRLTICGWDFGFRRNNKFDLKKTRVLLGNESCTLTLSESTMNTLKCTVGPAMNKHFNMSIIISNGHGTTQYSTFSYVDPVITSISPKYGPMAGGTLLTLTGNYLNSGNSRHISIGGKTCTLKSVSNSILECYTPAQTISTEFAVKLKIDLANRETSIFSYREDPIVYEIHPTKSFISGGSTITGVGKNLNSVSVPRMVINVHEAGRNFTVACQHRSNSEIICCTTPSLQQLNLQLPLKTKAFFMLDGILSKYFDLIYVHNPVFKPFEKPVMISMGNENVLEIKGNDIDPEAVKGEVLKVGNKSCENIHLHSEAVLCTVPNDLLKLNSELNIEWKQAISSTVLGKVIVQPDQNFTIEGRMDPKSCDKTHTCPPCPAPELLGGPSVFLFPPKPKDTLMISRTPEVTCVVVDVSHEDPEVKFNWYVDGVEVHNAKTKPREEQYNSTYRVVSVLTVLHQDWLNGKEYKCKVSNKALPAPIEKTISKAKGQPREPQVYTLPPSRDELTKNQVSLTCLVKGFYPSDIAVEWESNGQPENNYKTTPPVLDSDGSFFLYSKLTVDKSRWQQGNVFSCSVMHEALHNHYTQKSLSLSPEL
T2 sequence (P08581 25-307 limits assumed): as the sequence (P08581 25-307) above
T6 sequence (P08581 25-567): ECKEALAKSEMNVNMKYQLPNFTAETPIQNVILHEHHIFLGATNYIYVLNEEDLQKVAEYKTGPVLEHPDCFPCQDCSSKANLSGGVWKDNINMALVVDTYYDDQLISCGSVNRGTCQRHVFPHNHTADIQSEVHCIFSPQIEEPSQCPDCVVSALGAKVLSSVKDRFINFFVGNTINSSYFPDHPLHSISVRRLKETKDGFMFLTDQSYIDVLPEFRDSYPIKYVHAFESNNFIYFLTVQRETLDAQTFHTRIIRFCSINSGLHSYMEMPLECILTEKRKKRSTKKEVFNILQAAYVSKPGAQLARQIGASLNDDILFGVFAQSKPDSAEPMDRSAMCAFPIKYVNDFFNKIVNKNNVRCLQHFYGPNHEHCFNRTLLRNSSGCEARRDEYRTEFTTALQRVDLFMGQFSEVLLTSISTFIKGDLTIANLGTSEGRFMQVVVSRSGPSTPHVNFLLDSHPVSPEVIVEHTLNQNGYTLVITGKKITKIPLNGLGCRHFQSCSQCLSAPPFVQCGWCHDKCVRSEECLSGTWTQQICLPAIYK

B1: PC1: phage-displayed anti-c-Met scFv, phage clone 1 (protein)
scFv: MAQVQLQQSGPGLVKPSQTLSLTCDISGDSVSSNSAAWNWIRQSPSRGLEWLGRTYYRSRWYNEYAVSVRGRISINAETSKNQFSLQLNSVTPEDTAIYYCARAGFCSGGNCYPGSEDAFDLWGQGTMVTVGGGGSGGGGSGGGGSDVVMTQSPPSLSVSVGDRVTITCRASQDITNDLNWYQQKPGKAPQLLIYHASELETGVPSRFSGSGFGTDFTLTISSLQPADIATYYCQQYDDLPLTFGGGTKVEIKR
modifications: left off: large carriers
- Inhibition of HGF binding to H1993 cells [1]: more than 90%
- c-Met binding affinity in comparative ELISA [2]: stronger c-Met binding affinity than either PC20 or PC21
- Binding to cellular c-Met on 293T cells [3]: higher than that of PC20 and PC21

B2: S21: soluble anti-c-Met scFv corresponding to phage clone PC21; VH/VL sequences in Table 1 (protein)
scFv: MAEVQLVESGPGLVKPSGTLSLKCDASAISMDSNYWWSWLRQPPGKGLEWIGEISHSGSTDYNPSLKSRATISIDKSKKQFFLRLKSVTAADTAVYYCAGLLSPLDAFDEWGQGTMVTVGGGGSGGGGSGGGGSDIQMTQSPSSLSASVGDRVTITCRASQRVATYLNWYQQKPGKAPNLLIYEASSLQSGVPSRFSGRRSGTDFTLTISSLQPEDFATYYCQQSYNTPYTFGQGTRLEIKR
modifications: left off: small tags and cut ends
- Kd ([4]; purified scFv 5 to 200 nM, c-MetF932-Fc coupled to CM5 chip, Kd calculated by BIAevaluation software): 14.9 nM
- Koff [4, 7]: 0.00389 s⁻¹
- Kon [4, 7]: 261000 M⁻¹ s⁻¹
- Inhibition of binding activity of HGF to c-Met [5]: only slightly inhibited
- Binding to c-Met567-Fc compared to c-Met932-Fc [6]: dramatically decreased
